Assay results: the supplement of paper PMC10065799, “High-throughput profiling of sequence recognition by tyrosine kinases and SH2 domains using bacterial peptide display” (eLife, 2023)

molecular target: Hck (UniProt P08631); assay: phosphorylation enrichment, bacterial display (enrichment ratio); higher = better substrate or ligand; peptides without Tyr show the background
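Also: 11-residue human phosphosite peptides and single-mutation variants displayed on the E. coli surface, counted by deep sequencing, each peptide's frequency after selection divided by its frequency in the unselected input library; frequency after pTyr selection over input frequency; kinase dosed for 20-30% of maximal phosphorylation in three min.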

Hck, sequence (P08631 whole entry, looked up): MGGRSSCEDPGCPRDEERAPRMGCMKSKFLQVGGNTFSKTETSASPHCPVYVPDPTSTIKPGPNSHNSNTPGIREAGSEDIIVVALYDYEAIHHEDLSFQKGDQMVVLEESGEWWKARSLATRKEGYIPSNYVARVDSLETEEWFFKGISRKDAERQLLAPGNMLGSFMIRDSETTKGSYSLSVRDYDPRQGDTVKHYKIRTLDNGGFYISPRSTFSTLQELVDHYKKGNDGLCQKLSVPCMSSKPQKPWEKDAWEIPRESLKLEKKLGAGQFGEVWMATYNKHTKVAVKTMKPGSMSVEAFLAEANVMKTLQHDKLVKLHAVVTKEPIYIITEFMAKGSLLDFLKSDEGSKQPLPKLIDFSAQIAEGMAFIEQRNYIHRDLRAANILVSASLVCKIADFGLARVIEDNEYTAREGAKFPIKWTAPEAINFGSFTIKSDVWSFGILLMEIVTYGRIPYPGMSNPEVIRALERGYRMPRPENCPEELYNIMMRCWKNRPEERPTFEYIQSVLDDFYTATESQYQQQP

Point of comparison: RLPNGYGLAYR [DLK1_Y262_S260N], phosphorylation enrichment 0.571. Against it:
- AFGGGYGGVLT [KRT19_Y65_YF] — lower, 0.454
- GLETSYIEDNC [PAH_Y24_Q20L] — lower, 0.487
- RELGEYGLQAF [ALDH2_Y497_YF] — higher, 0.772
- TPIFPYLLPKS [PLD2_Y580_T577I_YF] — higher, 0.64
- EDSEFYRAFEE [CASQ2_Y179_K180R_YF] — lower, 0.513
- QADVVYVNTQL [MERTK_Y872_I871V] — higher, 0.729
- PDGVEYLKNDP [GRIN3A_Y831] — higher, 1
- FSPPFYHRNCM [HGD_Y334_R330S_YF] — lower, 0.457
- KKEGPYDVVVL [PARK7_Y67] — lower, 0.57
- KVKSIYFHTQG [AR_Y916_P914S] — lower, 0.414
- GANFEYIIAEK [ECHS1_Y35] — lower, 0.553
- AELVQYYMEHH [PTPN11_Y80] — higher, 0.974
- FADGVYQALEE [DUOX2_Y70_YF] — higher, 3.3
- FRSSLYSLMET [MYO5C_Y633_L634S] — higher, 4.03
- FFCRWYRNRKS [EREG_Y144_YF] — lower, 0.326
- VIEYSYTSADG [DHCR7_Y382_C380Y] — lower, 0.557
- SSTAMYSAAGR [PSMB1_Y8_P11A] — higher, 0.755
- LNPVVYTLRNA [OR4C12_Y285] — higher, 1.27
- DLVSEYQQFQD [TUBB3_Y422_YF] — higher, 0.643
- AGHEEYSAMRD [KRAS_Y64_Q61H] — lower, 0.542
- IRFSDYVEVAD [PHACTR1_Y525] — lower, 0.519
- SDQRRYSLIDR [CLIP2_Y972] — lower, 0.366
- MSRNLYSGDFF [DDR2_Y736_YF] — higher, 5.38
- RYFTTYDTNGR [CLCA1_Y665] — higher, 0.943
- SQGRQYQELPR [KCNH2_Y1009_R1005Q] — higher, 0.668
- LRRFIYRPPDR [OTOF_Y1231] — higher, 0.854
- TEALFYTDDPA [ADPRS_Y75_T79P_YF] — higher, 0.76
- CTTIHHNYMCN [TP53_Y234_Y234H] — lower, 0.455
- NLVSEYQQYQD [TUBB3_Y422_D417N] — higher, 0.606
- RVILRYVNPGT [LAMA3_Y791] — lower, 0.561
- PQDSAYHSGIQ [FLG_Y3940_S3935P] — lower, 0.486
- KLPDAYERFIL [G6PD_Y437_L440F] — lower, 0.569

molecular target: Jak2 (UniProt O60674); assay: as above
Sequence (O60674 whole entry, looked up): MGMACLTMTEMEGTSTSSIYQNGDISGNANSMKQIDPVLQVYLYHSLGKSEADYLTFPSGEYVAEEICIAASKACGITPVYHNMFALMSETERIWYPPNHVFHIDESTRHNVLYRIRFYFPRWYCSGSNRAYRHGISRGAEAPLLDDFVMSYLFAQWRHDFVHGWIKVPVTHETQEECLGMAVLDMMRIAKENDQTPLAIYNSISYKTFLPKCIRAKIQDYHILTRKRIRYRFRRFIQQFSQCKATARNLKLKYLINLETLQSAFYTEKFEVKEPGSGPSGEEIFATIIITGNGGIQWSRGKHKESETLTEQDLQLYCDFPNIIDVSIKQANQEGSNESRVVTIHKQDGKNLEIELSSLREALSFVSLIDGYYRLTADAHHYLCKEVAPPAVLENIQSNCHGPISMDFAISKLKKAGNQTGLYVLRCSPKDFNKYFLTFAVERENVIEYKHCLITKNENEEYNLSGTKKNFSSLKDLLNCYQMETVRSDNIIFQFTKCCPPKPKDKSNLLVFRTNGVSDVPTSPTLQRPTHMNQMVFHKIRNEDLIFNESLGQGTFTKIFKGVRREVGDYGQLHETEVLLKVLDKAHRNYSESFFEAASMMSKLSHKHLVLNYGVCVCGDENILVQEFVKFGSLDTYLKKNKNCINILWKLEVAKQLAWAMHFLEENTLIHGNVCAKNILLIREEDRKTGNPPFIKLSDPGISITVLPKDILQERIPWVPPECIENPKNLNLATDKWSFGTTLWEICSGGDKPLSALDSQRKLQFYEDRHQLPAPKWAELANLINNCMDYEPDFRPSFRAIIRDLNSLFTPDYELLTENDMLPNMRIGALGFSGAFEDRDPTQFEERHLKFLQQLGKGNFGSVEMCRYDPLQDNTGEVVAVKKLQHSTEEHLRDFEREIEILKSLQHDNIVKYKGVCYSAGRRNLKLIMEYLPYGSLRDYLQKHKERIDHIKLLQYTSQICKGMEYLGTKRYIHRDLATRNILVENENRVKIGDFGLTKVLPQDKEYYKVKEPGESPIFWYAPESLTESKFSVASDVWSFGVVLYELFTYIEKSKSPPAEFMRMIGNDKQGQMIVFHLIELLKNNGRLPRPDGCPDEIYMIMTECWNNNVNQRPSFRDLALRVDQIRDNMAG

Point of comparison: RELGEYGLQAF [ALDH2_Y497_YF], phosphorylation enrichment 0.724. Against it:
- AFGGGYGGVLT [KRT19_Y65_YF] — lower, 0.625
- GLETSYIEDNC [PAH_Y24_Q20L] — higher, 0.873
- TPIFPYLLPKS [PLD2_Y580_T577I_YF] — lower, 0.723
- RLPNGYGLAYR [DLK1_Y262_S260N] — lower, 0.509
- EDSEFYRAFEE [CASQ2_Y179_K180R_YF] — higher, 1.02
- QADVVYVNTQL [MERTK_Y872_I871V] — higher, 0.728
- PDGVEYLKNDP [GRIN3A_Y831] — higher, 0.929
- FSPPFYHRNCM [HGD_Y334_R330S_YF] — higher, 0.971
- KKEGPYDVVVL [PARK7_Y67] — lower, 0.691
- KVKSIYFHTQG [AR_Y916_P914S] — lower, 0.614
- GANFEYIIAEK [ECHS1_Y35] — higher, 0.883
- AELVQYYMEHH [PTPN11_Y80] — higher, 1.19
- FADGVYQALEE [DUOX2_Y70_YF] — higher, 0.979
- FRSSLYSLMET [MYO5C_Y633_L634S] — higher, 0.77
- FFCRWYRNRKS [EREG_Y144_YF] — lower, 0.433
- VIEYSYTSADG [DHCR7_Y382_C380Y] — higher, 0.897
- SSTAMYSAAGR [PSMB1_Y8_P11A] — lower, 0.458
- LNPVVYTLRNA [OR4C12_Y285] — higher, 1.5
- DLVSEYQQFQD [TUBB3_Y422_YF] — higher, 1.25
- AGHEEYSAMRD [KRAS_Y64_Q61H] — higher, 0.854
- IRFSDYVEVAD [PHACTR1_Y525] — higher, 1.01
- SDQRRYSLIDR [CLIP2_Y972] — lower, 0.479
- MSRNLYSGDFF [DDR2_Y736_YF] — lower, 0.655
- RYFTTYDTNGR [CLCA1_Y665] — higher, 0.742
- SQGRQYQELPR [KCNH2_Y1009_R1005Q] — lower, 0.517
- LRRFIYRPPDR [OTOF_Y1231] — higher, 0.809
- TEALFYTDDPA [ADPRS_Y75_T79P_YF] — higher, 1.65
- CTTIHHNYMCN [TP53_Y234_Y234H] — higher, 0.835
- NLVSEYQQYQD [TUBB3_Y422_D417N] — higher, 0.968
- RVILRYVNPGT [LAMA3_Y791] — higher, 0.947
- PQDSAYHSGIQ [FLG_Y3940_S3935P] — lower, 0.598
- KLPDAYERFIL [G6PD_Y437_L440F] — higher, 0.892

molecular target: MERTK (UniProt Q12866); assay: as above
Sequence (Q12866 whole entry, looked up): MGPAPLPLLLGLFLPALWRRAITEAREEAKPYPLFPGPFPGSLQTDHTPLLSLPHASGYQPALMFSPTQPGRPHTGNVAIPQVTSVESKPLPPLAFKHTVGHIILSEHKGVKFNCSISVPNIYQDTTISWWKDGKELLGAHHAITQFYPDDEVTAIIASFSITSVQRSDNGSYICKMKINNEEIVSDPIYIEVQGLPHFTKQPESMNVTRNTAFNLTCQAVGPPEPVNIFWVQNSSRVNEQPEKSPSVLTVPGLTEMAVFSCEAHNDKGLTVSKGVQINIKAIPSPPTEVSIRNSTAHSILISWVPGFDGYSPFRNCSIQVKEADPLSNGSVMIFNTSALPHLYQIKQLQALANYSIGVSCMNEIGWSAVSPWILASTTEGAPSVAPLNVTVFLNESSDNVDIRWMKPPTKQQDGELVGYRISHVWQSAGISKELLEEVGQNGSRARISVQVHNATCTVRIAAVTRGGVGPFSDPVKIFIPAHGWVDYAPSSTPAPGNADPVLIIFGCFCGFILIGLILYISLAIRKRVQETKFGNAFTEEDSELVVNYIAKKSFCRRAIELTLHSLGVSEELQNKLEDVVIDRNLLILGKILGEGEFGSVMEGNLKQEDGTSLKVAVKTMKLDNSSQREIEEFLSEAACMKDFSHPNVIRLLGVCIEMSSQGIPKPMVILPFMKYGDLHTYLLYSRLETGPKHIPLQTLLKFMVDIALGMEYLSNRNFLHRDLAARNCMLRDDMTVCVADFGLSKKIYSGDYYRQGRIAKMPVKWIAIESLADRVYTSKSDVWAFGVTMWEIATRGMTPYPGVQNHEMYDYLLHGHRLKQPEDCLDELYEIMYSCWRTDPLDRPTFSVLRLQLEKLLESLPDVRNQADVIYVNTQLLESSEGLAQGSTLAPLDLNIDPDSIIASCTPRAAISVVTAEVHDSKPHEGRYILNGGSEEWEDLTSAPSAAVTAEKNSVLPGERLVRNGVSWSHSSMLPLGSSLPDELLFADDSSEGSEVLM

Point of comparison: PDGVEYLKNDP [GRIN3A_Y831], phosphorylation enrichment 0.389. Against it:
- AFGGGYGGVLT [KRT19_Y65_YF] — lower, 0.286
- GLETSYIEDNC [PAH_Y24_Q20L] — higher, 0.497
- RELGEYGLQAF [ALDH2_Y497_YF] — higher, 1.87
- TPIFPYLLPKS [PLD2_Y580_T577I_YF] — higher, 0.538
- RLPNGYGLAYR [DLK1_Y262_S260N] — higher, 0.453
- EDSEFYRAFEE [CASQ2_Y179_K180R_YF] — higher, 0.449
- QADVVYVNTQL [MERTK_Y872_I871V] — lower, 0.372
- FSPPFYHRNCM [HGD_Y334_R330S_YF] — higher, 0.535
- KKEGPYDVVVL [PARK7_Y67] — higher, 0.7
- KVKSIYFHTQG [AR_Y916_P914S] — lower, 0.379
- GANFEYIIAEK [ECHS1_Y35] — higher, 0.513
- AELVQYYMEHH [PTPN11_Y80] — higher, 0.68
- FADGVYQALEE [DUOX2_Y70_YF] — higher, 1.38
- FRSSLYSLMET [MYO5C_Y633_L634S] — higher, 12.4
- FFCRWYRNRKS [EREG_Y144_YF] — higher, 0.433
- VIEYSYTSADG [DHCR7_Y382_C380Y] — lower, 0.365
- SSTAMYSAAGR [PSMB1_Y8_P11A] — higher, 0.511
- LNPVVYTLRNA [OR4C12_Y285] — higher, 0.971
- DLVSEYQQFQD [TUBB3_Y422_YF] — higher, 0.511
- AGHEEYSAMRD [KRAS_Y64_Q61H] — higher, 0.532
- IRFSDYVEVAD [PHACTR1_Y525] — higher, 0.434
- SDQRRYSLIDR [CLIP2_Y972] — higher, 0.419
- MSRNLYSGDFF [DDR2_Y736_YF] — higher, 9.92
- RYFTTYDTNGR [CLCA1_Y665] — higher, 0.557
- SQGRQYQELPR [KCNH2_Y1009_R1005Q] — higher, 0.412
- LRRFIYRPPDR [OTOF_Y1231] — higher, 0.824
- TEALFYTDDPA [ADPRS_Y75_T79P_YF] — higher, 0.699
- CTTIHHNYMCN [TP53_Y234_Y234H] — lower, 0.362
- NLVSEYQQYQD [TUBB3_Y422_D417N] — higher, 0.44
- RVILRYVNPGT [LAMA3_Y791] — lower, 0.385
- PQDSAYHSGIQ [FLG_Y3940_S3935P] — higher, 0.445
- KLPDAYERFIL [G6PD_Y437_L440F] — higher, 0.538

test system: c-Abl (mouse); assay: as above

Point of comparison: NLVSEYQQYQD [TUBB3_Y422_D417N], phosphorylation enrichment 0.679. Against it:
- AFGGGYGGVLT [KRT19_Y65_YF] — higher, 0.685
- GLETSYIEDNC [PAH_Y24_Q20L] — higher, 0.744
- RELGEYGLQAF [ALDH2_Y497_YF] — higher, 0.951
- TPIFPYLLPKS [PLD2_Y580_T577I_YF] — higher, 0.7
- RLPNGYGLAYR [DLK1_Y262_S260N] — lower, 0.413
- EDSEFYRAFEE [CASQ2_Y179_K180R_YF] — higher, 0.771
- QADVVYVNTQL [MERTK_Y872_I871V] — lower, 0.631
- PDGVEYLKNDP [GRIN3A_Y831] — higher, 0.709
- FSPPFYHRNCM [HGD_Y334_R330S_YF] — higher, 0.767
- KKEGPYDVVVL [PARK7_Y67] — lower, 0.631
- KVKSIYFHTQG [AR_Y916_P914S] — lower, 0.563
- GANFEYIIAEK [ECHS1_Y35] — lower, 0.544
- AELVQYYMEHH [PTPN11_Y80] — higher, 0.826
- FADGVYQALEE [DUOX2_Y70_YF] — higher, 0.749
- FRSSLYSLMET [MYO5C_Y633_L634S] — lower, 0.629
- FFCRWYRNRKS [EREG_Y144_YF] — lower, 0.421
- VIEYSYTSADG [DHCR7_Y382_C380Y] — higher, 0.686
- SSTAMYSAAGR [PSMB1_Y8_P11A] — lower, 0.444
- LNPVVYTLRNA [OR4C12_Y285] — higher, 1.2
- DLVSEYQQFQD [TUBB3_Y422_YF] — higher, 0.8
- AGHEEYSAMRD [KRAS_Y64_Q61H] — lower, 0.616
- IRFSDYVEVAD [PHACTR1_Y525] — higher, 0.755
- SDQRRYSLIDR [CLIP2_Y972] — lower, 0.467
- MSRNLYSGDFF [DDR2_Y736_YF] — higher, 0.797
- RYFTTYDTNGR [CLCA1_Y665] — lower, 0.296
- SQGRQYQELPR [KCNH2_Y1009_R1005Q] — lower, 0.473
- LRRFIYRPPDR [OTOF_Y1231] — lower, 0.485
- TEALFYTDDPA [ADPRS_Y75_T79P_YF] — higher, 1.25
- CTTIHHNYMCN [TP53_Y234_Y234H] — lower, 0.525
- RVILRYVNPGT [LAMA3_Y791] — lower, 0.663
- PQDSAYHSGIQ [FLG_Y3940_S3935P] — higher, 1.69
- KLPDAYERFIL [G6PD_Y437_L440F] — higher, 0.745
